Experimental data: publication PMC5368172

Columns and labels:
[1] = target: SCM on the surface of S. canis strain G361 (Streptococcus canis (endogenous in strain G361)); experiment: radioligand binding; iodinated IgG or iodinated plasminogen incubated with whole S. canis bacteria, gamma-counting, percent bound; inhibition with 1.0 μM non-labeled IgG or plasminogen
[2] = target: HRP-conjugated human IgG (human); experiment: ELISA; competitive: wells coated with 5 μg full length SCM; HRP-conjugated human IgG (1:200) pre-incubated 15 min with 10 μg SCM, FOG or KO173225, then added for 2 h

| Substance | percent bound [1] [%] | percent bound with excess non-radiolabeled plasminogen [1] [%] | IgG binding to immobilized SCM left after pre-incubation of IgG with 10 μg SCM, percent [2] [%] |
| --- | --- | --- | --- |
| human plasminogen (natural protein) | 37.1 | 23.3 |  |
| recombinant SCM, the M protein of Streptococcus canis (natural protein) |  |  | 20 |
